Data: doi:10.1101/2020.06.24.163345

Biological target: SisCmr7-β (Cmr7 subunit of the S. islandicus Cmr-β complex), dimer (S. islandicus (REY15A))
Experiment: cryo-EM structure

- stoichiometry N: 2
Substance: SisCmr7-β (Cmr7 subunit of the S. islandicus Cmr-β complex), dimer (natural protein)
